# From a protein production outcome set (Wang et al. 2014)
# Assay: label from the status in PepcDB records
# 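Further: failed if final PepcDB status was selected cloned or expressed and not failed if soluble or beyond.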
row,Sequence,protein production
1,MKMKHAFGPIILACVLFFIIILIPSKSLVSLISDKKVEDAATSLQKEKLQSVFLQQKMLENSQYLPMYGSSEFLRMDAYHPSNYFKVNPAGFTPFLIGTGGTQSLAHILNMTSTMDELEGKKVVFVLSPQWFTKTGVSQGDFTNNFSKQQAYHFIFNDKINPEMKKQIAKRLLDYKVVQEDDILKNSLEGIVYNDSKHNIKAGLVKPLAYMHRNILDHRDLFNSLFKIEPMKEKTNIGLRSISWEDARKHAEQEGKAESTTNTFGIENPYYHKNNLKKKLKGLKNFRANETYDESPEYDDLQIILELFKEKNVKPLFISVPVNGPWYDYTGFPKERREVYYKKVREQVEKAGYPVIDFSGHEYDKYFLKDTIHLGWKGWIYFDEAVQKFYSEKLEHHHHHH,not failed
2,MKMKLLILAVLPFLTPINMNSQEEKASWVQYVNPLIGTEVWQSGVAVAGHEDPSGYTFPGVTEPFGMTEWTAHTLESKHAGTLHHRVPYWYKHNYISGFMGTHYPSGAVMFDYGAVELMPVVGQLKCRPEERSSSFTHITEKSKPHFYEVMLDDYQVKAQLSATKTSAILQFTYPQSDSAYVVVDAMPSMFTAGAPGYIHIDPVRKEISGKSIQSARGYRETGYFVVRFDKDFDSFGTFNLNNDYPEVIEEKYLFTQKEGKWVNGLKGIYTQDSKGVGHLRSEKIDPVIDFDWDWYKPADDFSFNDYQVTWSGKLKAPSTGEYTLGIQADDGARLYINGELLIDDWKSHSFSYQPTQKKISLEAGKMYDIKLEYYQHEWSSRIKLSWIRPDKKSSTSLLTGNRHLESSTKIGGYIRFKTGKNEVIKAIVGTSFISVEQARINLEREIGAKSMETISAQTEALWNKELSVIDLPGATEQDKIVFYTALYHSFLLPRSLSEDGKYRSPFDGKVHKGISFTDYSIWDTFRATHPLFVLLKPDFAGDLITGLLHAYDEGGWLPKWPNPGYTNCMMGTHSDAIIADAYVKGVRNFDVEKAKKAVLKNAYEKGNHIAWGRLGIMDYERLGYVPVDKYGESVARTMEFAYDDYCLSRFFAEKGEPDLSDKLGKRSKNFRNVLDKETKMVRARKADGSWSNPEDYDISVWSGFNPKGVYNYKKNYTLFVPHDVPELIRFLGGTDSLAVFMDELFDKDIYYVGDEFVMHAPYMYNLCKRPWMTQKRIYDIVNKYYLPTPSGLPGNDDCGQLSSWYIFSAMGFYPMCPASIEYQLGVPCLPGFVLHLPQNRTFTIKTKNFGKGNCYVRAVYLNGKPHRSSVITHSDIINGGEILFELTDKPAYNWFQ,failed
3,MKMKYDPGETWRSIYRENKRCDGFNNYYDDESASYQFSENPYVWKDGKERCRTIGMQNDWTALDIGAGAGSMTVPLAKICKRVTAVEPSKTMARILSSNLKKAGLDNVQIINSRWEDAPEEIERHDIIIAAYSLMIDDIEKAVLRMNSLARKKVYLYWFAGVPYWERHCLDLWSTIYGYEYTPSPKVDLIFAVLYKHGIYPDVVNLDSERPPYERVMTTEQAMDELKDSLHLKGNDEWDELLMRYIEDNYEKKEDGCWSRGGSSRMRISWSPQP,failed
4,MKMVLFSFLLGCCSLLVSAQQPVDYVNPFIGTSNYGTTNPGAICPQGMMSVTPFNVMGSKSNKFDKDSQWWSTPYSADNNFFTGYAHVNLSGVGCPEMGSLLLMPTSGELNVDYHAYGSEYKNEVAHPGYYSNILTKYDIKTEATASMRTGLTRFTFPKGQGNILLNLGEGLTNETGATVRMVSDTEIEGSKLLGTFCYNPQAVFPIYFVMKLSKAPKQAGYWKKQREMKGVEAEWDAYSGKYKLYTKYDREMSGDDIGVWFKYDTEEDEVIEVKMGVSFVSIENARLNMNTEQPDFNFDKVRAAAGKMWNDDLSRVMVEGGTNDDKTIFYTAIYHLLIHPNIIQDVNGEYPMMESLKVGHTTGNRYTVFSLWDTYRNVSTLMTLLYPEKQLDIIRTMIDMYKESGWLPKWELYGRETLTMEGDPSIPYIVDAYMRGLRDYDIETAYEGMCKGATTPGEFNLLRPDNNDYMSKGYVPLREQYDNSVSHALEYYIADWNLSLLADALGKKEDAKLFRERAMGYKHYYCKEFGTLRPILPDGTFYSPFDPKQGENFEPSPGFHEGNAWNYTFYVPHDIKGLAKLMGGQKKFVDKLQMVFDKGYYDMANEPDIAYPYLFSYFKGEAWRTQKLVCELLGKYYHNAPNGLPGNDDTGTMSTWAIFSMMGFYPACPGDLDYVVTSPTFNKVTIRLDEKFYPKGELVIESARKTPEDIYIKEVTAGGKKLKGYTISQDELVNAGTLRFTLENKH,failed
5,MKNDRKARLILSIFRYGKNHMEKETFYHKVNYGIYKILNAVFVIGFFGTELQASQSISNNIILFHPYGIVVSGEATLGDEVVIRQQVTIGNKGTGEGADDCPIIGDRVDIGAGAKIIGGITIGENSKIGANAVVTKSFPANSILVGVPARNIASKAMNGLEHHHHHH,not failed
6,MKNFSRTGKILFSYGAIQMFWGLVMLNVNVFEHTSETIKYVILITGIVFCIISNFFKEHKSHTIT,failed
